# Data: the DeepSol protein solubility set
# Experiment: soluble on expression in E. coli; label from the status in PepcDB or PDB records
row,Sequence,soluble on expression in E. coli
1,GSHMSHLDNTMAIRLLPLPVRAQLCAHLDALDVWQQLATAVKLYPDQVEQISSQKQRGRSASNEFLNIWGGQYNHTVQTLFALFKKLKLHNAMRLIKDYVSEDLHKYI,soluble
2,GSHMSQLYASLFYQRDVTEIFSDRALVSYMVEAEVALAQAQAQVGVIPQSAATVIQRAAKTAIDKIDFDALATATGLAGNIAIPFVKQLTAIVKDADEDAARYVHWGATSQDILDTACILQCRDALAIVQNQVQQCYETALSQAQTYRHQVMMGRTWLQQALPITLGHKLARWASAFKRDLDRINAIKARVLVAQLGGAVGSLASLQDQGSIVVEAYAKQLKLGQTACTWHGERDRIVEIASVLGIITGNVGKMARDWSLMMQTEIAEVFEPTAKGRGGSSTMPHKRNPVAAASVLAAANRVPALMSSIYQSMVQEHERSLGAWHAEWLSLPEIFQLTAGALERTLDVLKGMEVNAENMHQNIECTHGLIMAEAVMMALAPHMGRLNAHHVVEAACKTAVAEQKHLKDIISQVDEVKQYFNPSQLDEIFKPESYLGNIQDQIDAVLQEAKGEAK,soluble
3,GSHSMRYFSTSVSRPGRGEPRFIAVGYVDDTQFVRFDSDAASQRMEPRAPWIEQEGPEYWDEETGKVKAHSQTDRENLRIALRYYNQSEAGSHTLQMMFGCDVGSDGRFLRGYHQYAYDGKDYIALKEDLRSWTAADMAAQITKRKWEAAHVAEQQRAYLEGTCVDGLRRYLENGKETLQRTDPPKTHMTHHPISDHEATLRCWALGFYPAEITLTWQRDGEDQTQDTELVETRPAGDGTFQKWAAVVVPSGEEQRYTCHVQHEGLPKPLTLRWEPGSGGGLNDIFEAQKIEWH,soluble
4,GSKFLNKRLSEREFDPDIHCGVIDLDTKKPCTRSLTCKTHSLTQRRAVQGRRKRFDVLLAEHKNKTREKELIRH,soluble
5,GSKVVKFSYMWTINNFSFCREEMGEVIKSSTFSSGANDKLKWCLRVNPKGLDEESKDYLSLYLLLVSCPKSEVRAKFKFSILNAKGEETKAMESQRAYRFVQGKDWGFKKFIRRGFLLDEANGLLPDDKLTLFCEVSVVQDSVNISGQNTMNMVKVPECRLADELGGLWENSRFTDCCLCVAGQEFQAHKAILAARSPVFSAMFEHEMEESKKNRVEINDVEPEVFKEMMCFIYTGKAPNLDKMADDLLAAADKYALERLKVMCEDALCSNLSVENAAEILILADLHSADQLKTQAVDFINYHATDVLETSG,soluble
6,GSLHRVPLRRHPSLKKKLRARSQLSEFWKSHNLDM,soluble
7,GSLLKPARFMCLPCGIAFSSPSTLEAHQAYYCSHRI,soluble
8,GSLSRLSYKSNNNSFVLGIGISVPGEPISQQSLKDSISNDFSDKAETNEKVKRIFEQSQIKTRHLVRDYTKPENSIKFRHLETITDVNNQFKKVVPDLAQQACLRALKDWGGDKGDITHIVSVTSTGIIIPDVNFKLIDLLGLNKDVERVSLNLMGCLAGLSSLRTAASLAKASPRNRILVVCTEVCSLHFSNTDGGDQMVASSIFADGSAAYIIGCNPRIEETPLYEVMCSINRSFPNTENAMVWDLEKEGWNLGLDASIPIVIGSGIEAFVDTLLDKAKLQTSTAISAKDCEFLIHTGGKSILMNIENSLGIDPKQTKNTWDVYHAYGNMSSASVIFVMDHARKSKSLPTYSISLAFGPGLAFEGCFLKNVV,soluble
9,GSMFPHHSITESVNYDVKTFGSSLPVKVMEALTLAEVDDQLTINIDEGGWACLVCKEKLIIWKIALSPITKLSVCKELQLPPSDFHWSADLVALSYSSPSGEAHSTQAVAVMVATREGSIRYWPSLAGEDTYTEAFVDSGGDKTYSFLTAVQGGSFILSSSGSQLIRLIPESSGKIHQHILPQGQGMLSGIGRKVSSLFGILSPSSDLTLSSVLWDRERSSFYSLTSSNISKWELDDSSEKHAYSWDINRALKENITDAIWGSESNYEAIKEGVNIRYLDLKQNCDGLVILAAAWHSADNPCLIYYSLITIEDNGCQMSDAVTVEVTQYNPPFQSEDLILCQLTVPNFSNQTAYLYNESAVYVCSTGTGKFSLPQEKIVFNAQGDSVLGAGACGGVPIIFSRNSGLVSITSRENVSILAEDLEGSLASSVAGPNSESMIFETTTKNETIA,soluble
10,GSPEKILAQIIQEHREGLDWQEAATRASLSLEETRKLLQSMAAAGQVTLLRVENDLYAISTERYQAWWQAVTRALEEFHSRYPLRPGLAREELRSRYFSRLPARVYQALLEEWSREGRLQLAANTVALAGFTPSFSETQKKLLKDLEDKYRVSRWQPPWVKEVAGSFNLDPSELEELLHYLVREGVLVKINDEFYWHRQALGEAREVIKNLASTGPFGLAEARDALGSSRKYVLPLLEYLDQVKFTRRVGDKRVVVGN,soluble
11,GSPPAQLSVHTVSWNSGHERAPTNLEELLGLNSGETPDVIAVAVQGFGFQTDKPQQGPACVKNFQSLLTSKGYTKLKNTITETMGLTVYCLEKHLDQNTLKNETIIVTVDDQKKSGGIVTSFTIYNKRFSFTTSRMSDEDVTSTNTKYAYDTRLDYSKKDDPSDFLFWIGDLNVRVETNATHAKSLVDQNNIDGLMAFDQLKKAKEQKLFDGWTEPQVTFKPTYKFKPNTDEYDLSATPSWTDRALYKSGTGKTIQPLSYNSLTNYKQTEHRPVLAKFRVTL,soluble
12,GSPREKVAMEYLQSASRVLTRSQLRDVVASSHLLQSEFMEIPMNFVDPKEIDIPRHGTKNRYKTILPNPLSRVCLRPKNITDSLSTYINANYIRGYSGKEKAFIATQGPMINTVNDFWQMVWQEDSPVIVMITKLKEKNEKCVLYWPEKRGIYGKVEVLVTGVTECDNYTIRNLVLKQGSHTQHVKHYWYTSWPDHKTPDSAQPLLQLMLDVEEDRLASEGRGPVVVHCSAGIGRTGCFIATSIGCQQLKEEGVVDALSIVCQLRVDRGGMVQTSEQYEFVHHALCLFESRLSPETV,soluble
13,GSRNPNKLDINTLTGEERVPVVNKRNGKKMGGAMAPPMKDLPRWLEENPEFAVAPDWTDIVKQSGFVPESMFDRLLTGPVVRGEGAS,soluble
14,GSSGGPNVPELILQLLQLEPEEDQVRARIVGCLQEPAKSRSDQPAPFSLLCRMADQTFISIVDWARRCMVFKELEVADQMTLLQNSWSELLVLDHIYRQVQYGKEDSILLVTGQEVELSTVAVQAGSLLHSLVLRAQELVLQLHALQLDRQEFVCLKFLILFSLDVKFLNNHSLVKDAQEKANAALLDYTLSHYPHSGDKFQQLLLSLVEVRALSMQAKEYLYHKHLGNEMPRNNLLIEMLQAKQT,soluble
15,GSSHHHHHHSFFFLSFHISNLQFNSSLEDPSTDYYQELQRDISEMFLQIYKQGGFLGLSNIKFRPG,soluble
16,GSSHHHHHHSSGLVPRGSHMRGQRGEVEQMKSCLRVLSQPMPPTAGEAEQAADQQEREGALELLADLCENMDNAADFCQLSGMHLLVGRYLEAGAAGLRWRAAQLIGTCSQNVAAIQEQVLGLGALRKLLRLLDRDACDTVRVKALFAISCLVREQEAGLLQFLRLDGFSVLMRAMQQQVQKLKVKSAFLLQNLLVGHPEHKGTLCSMGMVQQLVALVRTEHSPFHEHVLGALCSLVTDFPQGVRECREPELGLEELLRHRCQLLQQHEEYQEELEFCEKLLQTCFSSPADDSMDR,soluble
17,GSTSAKRIQKELAEITLDPPPNCSAGPKGDNIYEWRSTILGPPGSVYEGGVFFLDITFSPDYPFKPPKVTFRTRIYHCNINSQGVICLDILKDNWSPALTISKVLLSICSLLTDCNPADPLVGSIATQYMTNRAEHDRMARQWTKRYAT,soluble
18,GTEDLYFQSHMTIAVTGSIATDHLMRFPGRFSEQLLPEHLHKVSLSFLVDDLVMHRGGVAGNMAFAIGVLGGEVALVGAAGADFADYRDWLKARGVNCDHVLISETAHTARFTCTTDVDMAQIASFYPGAMSEARNIKLADVVSAIGKPELVIIGANDPEAMFLHTEECRKLGLAFAADPSQQLARLSGEEIRRLVNGAAYLFTNDYEWDLLLSKTGWSEADVMAQIDLRVTTLGPKGVDLVEPDGTTIHVGVVPETSQTDPTGVGDAFRAGFLTGRSAGLGLERSAQLGSLVAVLVLESTGTQEWQWDYEAAASRLAGAYGEHAAAEIVAVLA,soluble
19,GTERPYGQREVDHYAEKQAIAERAAQEVREGQVVCFDAGSTTMEVARAIPDTDYVAATNMPDLATELAEGDVDTKLTGGSLRPRTRALVGPTAERAVERMNFDLLFLGTNALDSAAGLSTPNEDEAAIKELMVERARRVVLVADASKFGDR,not soluble
